B1: TPR t1 (parent)
chain: GACCAAUCUGCCCUCAGAGCUCGAGAACAUCUUCGGAUGCAGAGGAGGCAGGCUUCGGUGGCGCGAUAGCGCCAACGUCCUCAACCUCCAAUGCAUCCCACCACAUGAUGAUGCCUGAAGAGCCUUGGUUUUUUG

This is an account of results in the RNAGym collection of RNA variant scans (doi:10.1073/pnas.2313332121).

This series covers variants of B1. The experiment in a line: polymerase ribozyme fitness, log enrichment relative to wild type (log ratio); higher = more active; in vitro selection for triplet polymerase activity. In outline: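 Mutant libraries were PCR-built and transcribed for each subunit of a heterodimeric triplet polymerase ribozyme and selected for one round in triplicate at −7 °C, frozen, before gel excision of extended constructs and streptavidin-bead capture. Input and output libraries were Illumina-sequenced, keeping genotypes with ≥10 input reads and ≥1 read per output. Fitness is a logarithmic ratio of genotype to wild-type enrichment, in base 2, using inverse-variance-weighted replicate averages.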
G39A C56A G71C C124A: the “polymerase ribozyme fitness (log ratio)” value is -5.6. On to U38G G47C C62U C85A, for which the “polymerase ribozyme fitness (log ratio)” value was -5.9. As for G39A C82A, the figure is -0.962; as for U38G C72G, -0.641; as for U38A G63C C85U, -2.4.

Consider U38G G93C A121U U133G, for which the “polymerase ribozyme fitness (log ratio)” value was -1.6. Under U38A A90U stands -2.22; under A37U U133G, -1.2. On to U38A C53G C56U G110A, for which the “polymerase ribozyme fitness (log ratio)” value was -2.64.

Turning to U38A G42U U59A C88G A95U C114A, the “polymerase ribozyme fitness (log ratio)” value is -4.56. With G39A A84C, the “polymerase ribozyme fitness (log ratio)” value is -1.2. In the case of U38C G39U, the “polymerase ribozyme fitness (log ratio)” value is -1.44. In the case of A37U G52U C62A, the “polymerase ribozyme fitness (log ratio)” value was -2.78.

As to U38A G57U G58U, the “polymerase ribozyme fitness (log ratio)” value was -1.64. For G39C G71A, the “polymerase ribozyme fitness (log ratio)” value is -1.21. G39A G69U C79A G127A: the “polymerase ribozyme fitness (log ratio)” value is -2.91. As for G39A U78A A108G A111C, the figure is -1.88. As for A37U U130G, the figure is -1.28; as for G39A G69C U112A, -1.42; as for G39C U112A A121U, 1.84. Consider G39U A50C, for which the “polymerase ribozyme fitness (log ratio)” value is -1.21. Under G39A C56G stands -1.24; under A37U U59A G61C G93U A95G U130G, -5.82. As for A37U G127A, the figure is -2.32.

With U38A G57A U116A G120A, the “polymerase ribozyme fitness (log ratio)” value is -4.1. Under U38G C70U C80U G120C stands -1.36; under U38G C56A G69U, -1.9; under U38A A111G, -1.31.

For G39A G69A, the “polymerase ribozyme fitness (log ratio)” value was -3.04.

For the variant G39A C53G G57C, the “polymerase ribozyme fitness (log ratio)” value is 0.135. U38C C56U C98U G110U: the “polymerase ribozyme fitness (log ratio)” value was -5.51. U38G U112C: the “polymerase ribozyme fitness (log ratio)” value is 0.772. As for G39U C73A, the “polymerase ribozyme fitness (log ratio)” value was -0.759. As for G39U C101A, the figure is -2.22; as for A37U G77A A90U C123U, -0.717; as for A37U G69A A83U U96A C124U U131A, -1.63.

Consider U38G G69C C86U C115A, for which the “polymerase ribozyme fitness (log ratio)” value was -3.28.

Take U38C G117U G120A: the “polymerase ribozyme fitness (log ratio)” value is -2.23. Under U38G G127U G135U stands -2.73; under A37U G113A C123U, -2.5. Under G39A A43G C73G U129G stands -5.71; under U38G G71U U92G G93A U112A, -6.86.

For G39C C62U G63A, the “polymerase ribozyme fitness (log ratio)” value was -3.77. Under U38C A46C C53A C76G C80U C94U stands -2.96; under A37U G122A, -1.18; under G39A U92C, -2.34. Turning to G39A U92A, the “polymerase ribozyme fitness (log ratio)” value is -3.56. In the case of A37U G113U, the “polymerase ribozyme fitness (log ratio)” value was -3.11. Turning to G39A A74U C82A, the “polymerase ribozyme fitness (log ratio)” value was -0.903. Under G39A G61U A100C C123A stands -1.14; under G39C G69A, -3.44. Take U38G G57U C62A A91U C97A G117A G120C: the “polymerase ribozyme fitness (log ratio)” value was -7.34. Take U38G A95C A100C U106A G127A: the “polymerase ribozyme fitness (log ratio)” value is -3.43. For G39A C49G G61A C89U C102G, the “polymerase ribozyme fitness (log ratio)” value was -7.76.

For U38G C56U A91U U125G U126G G127U, the “polymerase ribozyme fitness (log ratio)” value is -3.43.

In the case of G39A C40U, the “polymerase ribozyme fitness (log ratio)” value is -1.56. Regarding U38C C70A, the “polymerase ribozyme fitness (log ratio)” value is -1.91. Under G39U A46G stands -1.02. As to G39U C64U C101G A108G, the “polymerase ribozyme fitness (log ratio)” value is -4.66. As for U38G A111C, the figure is -0.398; as for U38G C53G, -1.52. Under G39C C73G C102A stands -4.36; under G39A G51U U78A, -4.54. As for U38G G42U G120C U126G G128U, the figure is -3.39. Turning to U38G G77A U78C U125A, the “polymerase ribozyme fitness (log ratio)” value is -1.89. For G39C A91C, the “polymerase ribozyme fitness (log ratio)” value was -1.16. With G39C A91U, the “polymerase ribozyme fitness (log ratio)” value is -2.41.

As for U38G C70U U125G, the “polymerase ribozyme fitness (log ratio)” value was -2.25. Under A37U G69U stands -0.0814. With U38G C49U, the “polymerase ribozyme fitness (log ratio)” value is -2.12.

Take G39A C86A C123A: the “polymerase ribozyme fitness (log ratio)” value was -1.81. Under G39A G113U stands -2.43; under G39U C79G U96C, -4.66.

Consider G39A G57U U116A U125A, for which the “polymerase ribozyme fitness (log ratio)” value is -4.53. As for U38G G60A G110C U125A, the figure is -6.15; as for G39U A43U G52C C73G C94A C97G G110C, -7.55; as for G39U C104A G120A, -1.22.

G39C C104U: the “polymerase ribozyme fitness (log ratio)” value is -1.04. G39U C70U U96G G113U: the “polymerase ribozyme fitness (log ratio)” value was -7.29. Under U38A G61C stands -2.48.

Take U38C U112A: the “polymerase ribozyme fitness (log ratio)” value is 1.08. As for A37U G57C G63A, the figure is -1.29; as for A37U G71A A84C C85U U96A, -0.538; as for G39C A90G, 0.876. As for G39A A43U C72G, the “polymerase ribozyme fitness (log ratio)” value is -1.83.

Turning to A37U U78C, the “polymerase ribozyme fitness (log ratio)” value is -0.461. As for U38G C56G G57C G77U, the figure is -1.18; as for A37U G77A A111C, 0.0508; as for G39C A41U, -2.47. As for G39A G48A C88A, the “polymerase ribozyme fitness (log ratio)” value is -1.33. For the variant U38G C49U G61U, the “polymerase ribozyme fitness (log ratio)” value was -1.52. As for G39C C53G C124U G128U, the figure is -0.975; as for G39A G63U C82U U133G, -2.41; as for U38G A83C, -1.25. Under U38G A84U stands -1.9. In the case of U38A C40U C70U C101U C123G, the “polymerase ribozyme fitness (log ratio)” value was -1.32.

In the case of G39U G42C, the “polymerase ribozyme fitness (log ratio)” value was -2.2. As to G39C A111C G113A, the “polymerase ribozyme fitness (log ratio)” value is -3.44.

For G39U C89U A118U, the “polymerase ribozyme fitness (log ratio)” value is -0.539. As for U38A C80U C123U, the figure is -1.04. Under G39U C94G G110A stands -1.31. As for U38C C40U C56G U78A G113A, the figure is -3.17; as for G39C C89A C99U U106A A111G, -6. On to G39U C70G G122A, for which the “polymerase ribozyme fitness (log ratio)” value is -3.94. For the variant G39A G47U G48A C70U C101A, the “polymerase ribozyme fitness (log ratio)” value is -5.46. Regarding G39A A43U C86G, the “polymerase ribozyme fitness (log ratio)” value is -1.99. As for G39U C73U C114U G120A G127C, the figure is -3.02. As to U38G G45U G47A C73U, the “polymerase ribozyme fitness (log ratio)” value is -5.77. As for A37U G52C G71A C115U U132C, the “polymerase ribozyme fitness (log ratio)” value is -3.24. In the case of U38G G39U U54G U87A G113C, the “polymerase ribozyme fitness (log ratio)” value is -3.28. In the case of G39A A46U G61A U129A, the “polymerase ribozyme fitness (log ratio)” value is -2.38. Consider U38C A46G, for which the “polymerase ribozyme fitness (log ratio)” value is -3.03. As for A37U U54A G61C C102A, the figure is -4.66; as for G39C C73U C99U C102A C124A G135A, -4.92; as for U38A G52A U55G G128A, -2.73. As for G39A G71C G93C C94U, the figure is -2.14; as for U38A C70U, -1.15. Under G39A U132A stands -0.367; under U38A A50U C123G U133A, -0.425; under U38G G45C G69C C101A A119U, -7.2. As to A37U G61U C114A U130A, the “polymerase ribozyme fitness (log ratio)” value was -1.52. As for U38A G93U C123U, the figure is -3.41; as for G39C C97U G120C, 0.357.

With A37U G110A, the “polymerase ribozyme fitness (log ratio)” value is -1.04. As for A37U G110U, the figure is -1.34; as for G39A A41U G69U, -0.975. Under G39A G48U A50U A84U C85A stands -3.82; under G39A G61C A118G G122A, -3.03. As for A37U U38C C53U, the figure is -1.6. For G39C A43G G48U U54G G93C G113A, the “polymerase ribozyme fitness (log ratio)” value is -5.27. As for U38G U55C G61A A91C A108C G110U C124A U126C, the figure is -6.93; as for G39A C72U U81G U96A G113C C124U, -6.86.

As for U38G C104A, the “polymerase ribozyme fitness (log ratio)” value was -1.93.

A37U G60U G113U: the “polymerase ribozyme fitness (log ratio)” value is -3.06.

Regarding G39C U126A, the “polymerase ribozyme fitness (log ratio)” value was -2.89. Under U38A C94G stands -2.2.

Regarding G39C G45U G61A U112C, the “polymerase ribozyme fitness (log ratio)” value stood at 0.603. As for G39C C115U C124A, the figure is -0.672; as for U38A A43C A83U C85A, -5.42; as for G39C U112A, 0.828.

Turning to U38A G58C C70U C115A, the “polymerase ribozyme fitness (log ratio)” value was -1.72. On to U38A G69C, for which the “polymerase ribozyme fitness (log ratio)” value is -2.61. Consider U38C C123A, for which the “polymerase ribozyme fitness (log ratio)” value is -0.222. As for U38G G52A G61A U112G C124U U129G, the figure is -1.92; as for U38A C82A C114A G120C A121C U132C, -3.34. Under U38A G63A G93U stands -4.96; under A37U G69U A95C C101G G127A, -3.13; under U38A G71A U129A, -3.95. Under G39U C115U stands -1.86. Regarding U38A A41G G44A C64U C82U, the “polymerase ribozyme fitness (log ratio)” value is -4.14. As for G39U C88A, the figure is -2.37. Turning to G39U C88U, the “polymerase ribozyme fitness (log ratio)” value was -0.766. In the case of U38G C62U C86U C115A, the “polymerase ribozyme fitness (log ratio)” value was -2.04. As for A37U G122A U130C U131A G135U, the figure is -1.18. Under G39A G58A A91U stands -2.28. As to G39U C70U, the “polymerase ribozyme fitness (log ratio)” value is -2.34.

Take A37U U112G: the “polymerase ribozyme fitness (log ratio)” value is -1.14. Under U38G C124U stands 0.564.

As to A37U U126A, the “polymerase ribozyme fitness (log ratio)” value was -2.55.

On to U38A G39U C82G U130A, for which the “polymerase ribozyme fitness (log ratio)” value was -3.44. As for G39A G71A, the figure is -1.08; as for G39A G71U, -0.815. Regarding A37U U54C G60U C123U, the “polymerase ribozyme fitness (log ratio)” value is 1.13. Regarding G39C G63A C76A G117C, the “polymerase ribozyme fitness (log ratio)” value was -6.26. Under U38C U59G A95C stands -0.718; under G39C G48U A111U, -4.49.

In the case of G39A C89G A90C, the “polymerase ribozyme fitness (log ratio)” value is -2.4.
